From patent US20260234188A1, “CHEMOKINE-BINDING PEPTIDES” (Oxford University Innovation Limited, priority 2022, published 2026) come the findings set out here.

This test has as its target CXL10_HUMAN (human) (UniProt P02778). As to the kind of experiment: cell-based or functional assay.

Chain of CXL10_HUMAN (human) (P02778 22-98 limits assumed): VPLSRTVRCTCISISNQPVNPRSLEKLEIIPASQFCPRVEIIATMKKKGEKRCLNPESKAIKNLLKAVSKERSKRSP

“EVA4_RHISA protein (from UniProt P0C8E9 24-127)” returned a cell migration of 20 µM.
